The record followed here is publication PMC7099567, “Enzymatic Synthesis of 2-Keto-3-Deoxy-6-Phosphogluconate by the 6-Phosphogluconate-Dehydratase From Caulobacter crescentus” (Frontiers in Bioengineering and Biotechnology, 2020).

Data set [1] deals with the molecule itself. Briefly: SEC; HiLoad 26/60 Superdex 200 prep grade; buffer C (50 mM HEPES/KOH, 300 mM NaCl, 5 mM MnCl, pH 8); isocratic flow 2 ml min^-1; native mass compared with the subunit mass from SDS-PAGE.
Substrate in the data set “purified protein”: O=C(O)[C@H](O)[C@@H](O)[C@H](O)[C@H](O)COP(=O)(O)O
Put plainly: purified protein. Type of data set: biochemical, Caulobacter vibrioides. The following applies: 100 mM HEPES pH 8.0, 37 C, 0.2 mM NADH, enzyme purified and stored with 5 mM MnCl2.

B1: 6-phosphogluconate dehydratase/Entner-Doudoroff dehydratase (EDD) from Caulobacter crescentus (enzyme, UniProt A0A0H3CB86 1-602, looked up)
chain: MSLNPVIADVTARIVARSKDSRAAYLANMDRAIENQPGRAKLSCANWAHAFAASPGVDKLRALDPNAPNIGIVSAYNDMLSAHQPLEAYPALIKDAARDVGATAQFAGGVPAMCDGVTQGRPGMELSLFSRDVIAMATAVALTHDAFDSALYLGVCDKIVPGLVIGALTFSHLPALFVPAGPMTSGLPNSEKARIRALYAEGKVGREELLAAESASYHGPGTCTFYGTANTNQMLMELMGFHLPGSAFVHPNTPLREALVKESARRVAAVTNKGNEFIPVGRMIDEKSFVNGVVGLMATGGSTNLALHIIAMAAAAGVQLTLEDLDDISKATPLLARVYPNGSADVNHFQAAGGMAFVIRELLKAGLVHEDVQTIAGAGLSLYAKEPVLEDGMLTWRDGAHESLDPAIVRPVSDPFSKEGGLRLMAGNLGRGVMKISAVKPEHHVIEAPCAVFQEQEDFIAAFKRGELDRDVVVVVRFQGPSANGMPELHNLSPSISVLLDRGHKVALVTDGRMSGASGKTPAAIHVTPEAAKGGPLAYVQDGDVIRVNAETGELKIMVDEATLLARTPANVPASKPGFGRELFGWMRSGVGAADAGASVFA
notes: Homodimer by size exclusion chromatography (130 kDa native, 63.2 kDa by SDS-PAGE); also called CcEDD; 6PG dehydratase; source: E. coli BL21 (DE3), pET15b, purified (Ni-TED)
Regarding B1, the “stoichiometry N” value in data set [1] turned out to be 2. In “purified protein”, the Km turned out to be 300 µM.
